Test results published in FireProtDB (doi:10.1016/s0022-2836(02)00630-7).

B1: Phosphocarrier protein HPr, P08877 (parent)
chain: MAQKTFKVTADSGIHARPATVLVQTASKYDADVNLEYNGKTVNLKSIMGVMSLGIAKGAEITISASGADENDALNALEETMKSEGLGE

Variants of: B1
Conditions: Bacillus subtilis (strain 168), pH 7, CD, Potassium phosphate 10 mM, reversible: yes, structure 1KKM, whole UniProt chain shown; for ddG of mutation (higher = less stable) / denaturant m value / denaturant midpoint (higher = more stable): 25 °C

| Variant | ddG of mutation (higher = less stable) (Thermal) [kcal/mol] | ddG of mutation (higher = less stable) (Urea) [kcal/mol] | denaturant m value (Urea) [kcal/mol/M] | denaturant midpoint (higher = more stable) (Urea) [M] | Tm (Thermal) [°C] | change of melting temperature, mutant - wild type (higher = more stable) (Thermal) [°C] | unfolding enthalpy (van 't Hoff) (Thermal) [kcal/mol] |
| --- | --- | --- | --- | --- | --- | --- | --- |
| MAQKTFKVTADSGIHARPATVLVQTASKYDADVNLEYNGKTVNLKSIMKVMSLGIAKGAEITISASGADENDALNALEETMKSEGLGE [G49K] | 1 | 0.8 | 1.13 | 3.84 | 68.1 | -4.5 | 73.9 |
| MAQKTFKVTADSGIHARPATVLVQTASKYDADVNLEYNGKTVNLKSIMEVMSLGIAKGAEITISASGADENDALNALEETMKSEGLGE [G49E] | -1.4 | -1.2 | 1 | 5.77 | 78.1 | 5.5 | 83.8 |
| MAQKTFKVTADSGIHARPATVLVQTASKYDADVNLEYNGKTVNLKSIMAVMSLGIAKGAEITISASGADENDALNALEETMKSEGLGE [G49A] | -0.8 | -0.9 | 1.01 | 5.44 | 75.8 | 3.2 | 82.4 |
